From article PMC3486911 (PLoS Pathogens, 2012)
“And” between values parts separate entries of the source, which are not always exact repeats. Equal entries are not always repeated. Where two headings read alike, the source gives them in different places.

Legend:
Test in all cases: SPR
[1] = biological target: V1 fHbp (V1.p1), wild type (Neisseria meningitidis) (UniProt Q9JXV4)
[2] = biological target: V3 fHbp (V3.p28), wild type (Neisseria meningitidis) (UniProt E6MV22)
[3] = biological target: V3 fHbp Ala99Glu (Neisseria meningitidis)
[4] = biological target: V3 fHbp Asn123 mutant (to Ala) (Neisseria meningitidis)
[5] = biological target: V3 fHbp Asn48 mutant (to Ala) (Neisseria meningitidis)
[6] = biological target: V3 fHbp Asp126 mutant (to Ala) (Neisseria meningitidis)
[7] = biological target: V3 fHbp Asp43 mutant (to Ala) (Neisseria meningitidis)
[8] = biological target: V3 fHbp Asp92 mutant (to Ala) (Neisseria meningitidis)
[9] = biological target: V3 fHbp Gln134 mutant (to Ala) (Neisseria meningitidis) (UniProt E6MV22)
[10] = biological target: V3 fHbp Gln87 mutant (to Ala) (Neisseria meningitidis) (UniProt E6MV22)
[11] = biological target: V3 fHbp Gly49 mutant (to Ala) (Neisseria meningitidis) (UniProt E6MV22)
[12] = biological target: V3 fHbp His190 mutant (to Ala) (Neisseria meningitidis)
[13] = biological target: V3 fHbp Ile122 mutant (to Ala) (Neisseria meningitidis)
[14] = biological target: V3 fHbp Ile89 mutant (to Ala) (Neisseria meningitidis) (UniProt E6MV22)
[15] = biological target: V3 fHbp Ile96 mutant (to Ala) (Neisseria meningitidis)
[16] = biological target: V3 fHbp Leu117 mutant (to Ala) (Neisseria meningitidis)
[17] = biological target: V3 fHbp Leu98 mutant (to Ala) (Neisseria meningitidis)
[18] = biological target: V3 fHbp Lys127 mutant (to Ala) (Neisseria meningitidis)
[19] = biological target: V3 fHbp Lys32 mutant (to Ala) (Neisseria meningitidis)
[20] = biological target: V3 fHbp Pro125 mutant (to Ala) (Neisseria meningitidis)
[21] = biological target: V3 fHbp Pro46 mutant (to Ala) (Neisseria meningitidis)
[22] = biological target: V3 fHbp Ser44 mutant (to Ala) (Neisseria meningitidis)
[23] = biological target: V3 fHbp Thr128 mutant (to Ala) (Neisseria meningitidis)
[24] = biological target: V3 fHbp Val114 mutant (to Ala) (Neisseria meningitidis)
[25] = biological target: V3 fHbp Val91 mutant (to Ala) (Neisseria meningitidis)
[26] = biological target: V1 fHbp (V1.p1), wild type (Neisseria meningitidis) (UniProt Q9JXV4); remark: listed apart in the source
[27] = biological target: V3 fHbp (V3.p28), wild type (Neisseria meningitidis) (UniProt E6MV22); remark: listed apart in the source
[28] = biological target: V3 fHbp Asp43 mutant (to Ala) (Neisseria meningitidis); remark: listed apart in the source
[29] = biological target: V3 fHbp Gln87 mutant (to Ala) (Neisseria meningitidis) (UniProt E6MV22); remark: listed apart in the source
[30] = biological target: V3 fHbp Ile96 mutant (to Ala) (Neisseria meningitidis); remark: listed apart in the source
[31] = biological target: V3 fHbp Val114 mutant (to Ala) (Neisseria meningitidis); remark: listed apart in the source

Substance: human factor H CCP 6 and 7 (fH67) (domain or fragment)
- Kd [1]: 2 nM and 2.1 nM
- Kd [2]: 2.4 nM and 2.3 nM
- Kd [3]: 79 nM and 70 nM
- Kd [4]: 7.4 nM and 8.6 nM
- Kd [5]: 3.6 nM and 3.7 nM
- Kd [6]: 6.3 nM and 6.5 nM
- Kd [7]: 3 nM and 3.4 nM
- Kd [8]: 4.7 nM and 4.8 nM
- Kd [9]: 2.6 nM and 2.7 nM
- Kd [10]: 0.71 nM and 0.72 nM
- Kd [11]: 3 nM
- Kd [12]: 3.4 nM and 3.3 nM
- Kd [13]: 9.4 nM and 11 nM
- Kd [14]: 38 nM
- Kd [15]: 14 nM and 15 nM
- Kd [16]: 5.2 nM
- Kd [17]: 86 nM and 88 nM
- Kd [18]: 2.9 nM and 3 nM
- Kd [19]: 3 nM
- Kd [20]: 3.2 nM and 3.4 nM
- Kd [21]: 0.026 nM and 0.03 nM
- Kd [22]: 10 nM and 9.8 nM
- Kd [23]: 4 nM and 4.4 nM
- Kd [24]: 3.2 nM and 3.3 nM
- Kd [25]: 5.6 nM and 6.5 nM
- Kd [26]: 2.05 nM
- Kd [27]: 2.35 nM
- Kd [28]: 3.2 nM
- Kd [29]: 0.715 nM
- Kd [30]: 14.5 nM
- Kd [31]: 3.25 nM
